Assay results as given in PMC4629423.

Assays:
Assay in all cases: two-hybrid
[1] = biological target: SARS-CoV accessory protein 8a (yeast two-hybrid fusions) (SARS-CoV Tor2 isolate)
[2] = biological target: SARS-CoV accessory protein 9b (yeast two-hybrid fusions) (SARS-CoV Tor2 isolate)
[3] = biological target: SARS-CoV accessory protein ORF14 (yeast two-hybrid fusions) (SARS-CoV Tor2 isolate)

With “SARS-CoV accessory protein 9b (yeast two-hybrid fusions) (natural protein)” the α-Galactosidase [1] was 1.17, the β-Galactosidase [1] was 6.91 and the α-Galactosidase [2] was 2.52. The β-Galactosidase [2] was 8.8.

Substance “SARS-CoV accessory protein ORF14 (yeast two-hybrid fusions) (natural protein)” has a α-Galactosidase [3] of 1.84 and a β-Galactosidase [3] of 6.03.
